Consider two molecules from paper PMC3140434 (Journal of molecular biology, 2011).

Some results are limits rather than exact numbers.

Data set [1] deals with Rev (Human immunodeficiency virus 1) (UniProt P04325). The data set can be described thus: fluorescence. Conditions: cited from earlier work.
Data set [2] concerns the molecule itself. The data set can be described thus: single-molecule TIRF fluorescence microscopy.

For the molecule DDX1 (from UniProt Q92499), in data set [1], the Kd is 36 nM.

B1: HIV-1 Rev (recombinant construct with N-terminal extension, both native cysteines changed to serine, labeled with Alexa-Fluor 555) (natural protein)
chain: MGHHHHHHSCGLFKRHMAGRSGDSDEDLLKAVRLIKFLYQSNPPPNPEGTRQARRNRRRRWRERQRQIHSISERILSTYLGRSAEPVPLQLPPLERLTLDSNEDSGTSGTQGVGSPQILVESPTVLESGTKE
Consider B1, for which, in data set [2], the Kd is roughly 1.5 nM and the “stoichiometry N” value is no more than 8 Rev monomers on one RRE.

Usually Kd stands for the concentration at which binding is half-saturated. For orientation: stoichiometry N means a count of units in the complex or per binding partner.
